Where no end group is shown, it is not given here.
Target: T1, human mdm2 N-terminal domain, mdm2(3-109) (human, UniProt Q00987 3-109)
T1 construct: Expressed in E. coli BL21(DE3) from a pLM1 vector; Uniformly 15N-labelled (or 15N,13C-labelled) where it is the observed species in NMR; unlabelled when used as titrant and when immobilised on the CM5 chip
Experiment: SPR (BIAcore 2000), mdm2(3-109) amine-coupled on CM5, peptide injected at 1.5625-50 µM, equilibrium fit

T1 sequence (Q00987 3-109 limits assumed): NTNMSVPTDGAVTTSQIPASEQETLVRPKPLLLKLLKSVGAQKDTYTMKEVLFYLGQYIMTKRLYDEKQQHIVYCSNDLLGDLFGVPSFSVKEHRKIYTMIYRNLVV

B1: native p53 TAD(49-54) peptide (peptide)
peptide: DIEQWF-NH2
notes: Synthetic, solid phase; also called p53 (49-54); p53(49-54) peptide
For B1, which Kd is on record?
The Kd was 25 µM.
